± gives the uncertainty stated by the source.

The chains are these.
B1: Androgen receptor, residues 557 to 632; numbered along this chain, P10275 (parent)
chain: QKTCLICGDEASGCHYGALTCGSCKVFFKRAAEGKQKYLCASRNDCTIDKFRRKNCPSCRLRKCYEAGMTLGARKL
B2: FERM and PDZ domain-containing protein 4, residues 75 to 154; numbered along this chain, Q14CM0 (parent)
chain: APRKVEMRRDPVLGFGFVAGSEKPVVVRSVTPGGPSEGKLIPGDQIVMINDEPVSAAPRERVIDLVRSCKESILLTVIQP

Variants of B1 are the subject of the first data set. The experiment in a line: abundance fitness (aPCA) (normalised: wild type 0, dead -1); higher = more abundant; growth selection in yeast, the domain comes from the species named. The conditions noted are these: Homo sapiens.
Consider QKTCLICGDEASGCHYGALTCGSCKVFFKRAAEGKQKYLCASRNDCTIDKFRRKNCPSCRLRKCYEAGMTLGAWKL [R74W], for which the abundance fitness is -0.19 ± 0.081.
Turning to QKTCLICGDEASGCHYGALTCGSCKVFFKRAAEGKQKYLCASRNDCTIDKFRRKNCPSCRLRKCYEAGMTLGARKS [L76S], the abundance fitness is -0.084 ± 0.086.

In the next data set the parent is B2. The data set is described as above. The settings on record: Homo sapiens.
Consider S21H, for which the abundance fitness was -0.028 ± 0.048.
For the variant S21K, the abundance fitness was -0.009 ± 0.033.
S21L: the abundance fitness is -0.049 ± 0.026.
As to S21N, the abundance fitness is -0.002 ± 0.047.
As for S21F, the abundance fitness is -0.021 ± 0.037.
As to S21G, the abundance fitness worked out at 0.043 ± 0.022.
As for S21A, the abundance fitness stood at 0.005 ± 0.025.
The same measure, in the same setting: for S21D the value was -0.003 ± 0.036.
On to S21C, for which the abundance fitness was -0.047 ± 0.033.
For S21P, the abundance fitness is -0.169 ± 0.031.
As to S21I, the abundance fitness was -0.234 ± 0.059.
In the case of S21M, the abundance fitness was -0.033 ± 0.034.
With A19W, the abundance fitness is -0.045 ± 0.03.
Regarding A19T, the abundance fitness was -0.005 ± 0.03.
Same read-out and setting: the result for A19G reads -0.074 ± 0.021; that for A19Q, -0.084 ± 0.033.
Take A19R: the abundance fitness was -0.83 ± 0.034.
Same read-out and setting: the result for A19F reads -0.016 ± 0.04.
As to A19N, the abundance fitness was -0.286 ± 0.048.
Turning to A19E, the abundance fitness is -0.075 ± 0.028.
Turning to A19K, the abundance fitness was -0.594 ± 0.045.
In the case of A19Y, the abundance fitness was -0.081 ± 0.043.
Turning to A19L, the abundance fitness stood at 0.045 ± 0.024.
Turning to A19I, the abundance fitness turned out to be 0.021 ± 0.048.
In the case of A19S, the abundance fitness was -0.066 ± 0.026.
The same measure, in the same setting: for A19M the value was 0.003 ± 0.033; for A19V, 0.003 ± 0.024.
For the variant A19C, the abundance fitness is -0.001 ± 0.037.
Turning to A19P, the abundance fitness was -0.029 ± 0.029.
For A19H, the abundance fitness was -0.03 ± 0.046.
With P2W, the abundance fitness is -0.119 ± 0.033.
Consider P2V, for which the abundance fitness is -0.049 ± 0.027.
On to P2A, for which the abundance fitness is -0.074 ± 0.026.
For P2D, the abundance fitness is -0.083 ± 0.042.
As for P2L, the abundance fitness was -0.015 ± 0.026.
Turning to P2E, the abundance fitness turned out to be 0.044 ± 0.032.
In the case of P2K, the abundance fitness is -0.051 ± 0.042.
As to P2M, the abundance fitness is 0.023 ± 0.041.
As for P2H, the abundance fitness came out at 0.023 ± 0.032.
On the same count and under the same terms, the result for P2I reads 0.019 ± 0.048; that for P2T, 0.007 ± 0.029.
On the same count and under the same terms, for P2R the value was -0.01 ± 0.023; for P2N, -0.003 ± 0.048.
As to P2G, the abundance fitness stood at 0 ± 0.027.
Turning to P2F, the abundance fitness is -0.012 ± 0.052.
Same read-out and setting: the result for P2C reads -0.066 ± 0.044; that for P2Y, -0.004 ± 0.05; that for V18A, -0.058 ± 0.023.
Consider V18Y, for which the abundance fitness is -0.078 ± 0.046.
For the variant V18F, the abundance fitness is -0.255 ± 0.044.
For V18E, the abundance fitness was -0.019 ± 0.025.
Same read-out and setting: for V18G the value was -0.112 ± 0.02; for V18C, -0.041 ± 0.032; for V18N, -0.104 ± 0.049.
Take V18L: the abundance fitness was -0.142 ± 0.025.
Take V18P: the abundance fitness is -1.03 ± 0.073.
Same read-out and setting: the result for V18H reads -0.048 ± 0.048; that for V18D, -0.055 ± 0.035.
With V18T, the abundance fitness was -0.092 ± 0.028.
On to V18W, for which the abundance fitness is -0.38 ± 0.03.
With V18M, the abundance fitness is -0.075 ± 0.034.
As for V18I, the abundance fitness is -0.01 ± 0.038.
The same measure, in the same setting: the result for V18S reads -0.095 ± 0.027.
Take V18K: the abundance fitness is -0.118 ± 0.032.
On the same count and under the same terms, for G14C the value was -0.502 ± 0.042.
With G14R, the abundance fitness was -0.496 ± 0.028.
The same measure, in the same setting: the result for G14Y reads -0.761 ± 0.068; that for G14D, -0.025 ± 0.036.
The same measure, in the same setting: the result for G14I reads -0.719 ± 0.062.
G14M: the abundance fitness is -0.404 ± 0.04.
The same measure, in the same setting: the result for G14K reads -0.247 ± 0.04; that for G14T, -0.718 ± 0.044; that for G14N, -0.131 ± 0.044.
On to G14S, for which the abundance fitness was -0.273 ± 0.028.
As to G14V, the abundance fitness was -0.779 ± 0.039.
Consider G14F, for which the abundance fitness is -0.822 ± 0.077.
In the case of G14L, the abundance fitness was -0.677 ± 0.035.
With G14P, the abundance fitness is -0.963 ± 0.073.
As for G14H, the abundance fitness was -0.303 ± 0.043.
G14W: the abundance fitness is -1 ± 0.071.
As to M7V, the abundance fitness is -0.034 ± 0.021.
As to M7H, the abundance fitness was -1.01 ± 0.096.
Turning to M7G, the abundance fitness was -0.877 ± 0.031.
Consider M7A, for which the abundance fitness was -0.213 ± 0.024.
M7E: the abundance fitness is -0.918 ± 0.051.
Take M7L: the abundance fitness was found to be 0.04 ± 0.022.
Consider M7D, for which the abundance fitness was -1.08 ± 0.085.
Same read-out and setting: for M7W the value was -1.02 ± 0.047; for M7N, -1.07 ± 0.11; for M7S, -0.535 ± 0.027.
On to M7T, for which the abundance fitness is -0.36 ± 0.03.
On to M7R, for which the abundance fitness is -0.967 ± 0.032.
On the same count and under the same terms, the result for M7Y reads -0.835 ± 0.075; that for M7F, -0.085 ± 0.036.
For M7C, the abundance fitness was -0.247 ± 0.032.
As for M7I, the abundance fitness came to 0.018 ± 0.033.
With M7Q, the abundance fitness was -0.937 ± 0.057.
With M7K, the abundance fitness is -1 ± 0.073.
As for F15C, the abundance fitness was -0.758 ± 0.061.
F15I: the abundance fitness is -0.702 ± 0.087.
As to F15T, the abundance fitness was -0.819 ± 0.053.
Take F15R: the abundance fitness is -0.911 ± 0.036.
On to F15P, for which the abundance fitness was -0.857 ± 0.047.
As for F15E, the abundance fitness was -0.805 ± 0.045.
As for F15S, the abundance fitness was -0.777 ± 0.035.
On to F15H, for which the abundance fitness was -0.828 ± 0.089.
On to F15Q, for which the abundance fitness is -0.776 ± 0.048.
Take F15W: the abundance fitness was -0.057 ± 0.029.
F15D: the abundance fitness was -0.781 ± 0.063.
As for F15N, the abundance fitness was -0.848 ± 0.094.
Turning to F15M, the abundance fitness is -0.392 ± 0.04.
F15V: the abundance fitness was -0.815 ± 0.037.
Turning to F15K, the abundance fitness is -0.905 ± 0.067.
Consider F15L, for which the abundance fitness is -0.26 ± 0.025.
Still for that read-out and setting: for F15Y the value was -0.039 ± 0.043; for F15A, -0.729 ± 0.034.
G16K: the abundance fitness was -0.911 ± 0.066.
In the case of G16L, the abundance fitness is -1.15 ± 0.066.
Take G16Y: the abundance fitness is -1.3 ± 0.27.
In the case of G16C, the abundance fitness was -0.956 ± 0.074.
On the same count and under the same terms, for G16H the value was -1.01 ± 0.14; for G16T, -0.946 ± 0.061.
Still for that read-out and setting: for G16N the value was -0.677 ± 0.099.
G16A: the abundance fitness is -0.499 ± 0.027.
On the same count and under the same terms, the result for G16Q reads -0.889 ± 0.066; that for G16S, -0.813 ± 0.039; that for G16R, -1.04 ± 0.042.
In the case of G16P, the abundance fitness was -0.977 ± 0.063.
For the variant G16V, the abundance fitness is -1.08 ± 0.049.
G16I: the abundance fitness is -1.32 ± 0.2.
Turning to G16F, the abundance fitness is -1.03 ± 0.13.
As to G16D, the abundance fitness was -0.783 ± 0.057.
In the case of A1W, the abundance fitness was -0.569 ± 0.096.
As to A1S, the abundance fitness is -0.207 ± 0.045.
A1F: the abundance fitness is -0.199 ± 0.17.
As for A1Y, the abundance fitness was -0.14 ± 0.099.
Regarding A1T, the abundance fitness is -0.278 ± 0.045.
Take A1V: the abundance fitness was -0.207 ± 0.028.
Same read-out and setting: for A1D the value was -0.046 ± 0.05; for A1P, -0.734 ± 0.16.
For the variant A1E, the abundance fitness was -0.329 ± 0.037.
Take A1C: the abundance fitness worked out at 0.003 ± 0.064.
On to A1I, for which the abundance fitness came out at 0.122 ± 0.49.
For A1M, the abundance fitness was -0.227 ± 0.084.
As for A1Q, the abundance fitness was -0.704 ± 0.2.
Consider A1G, for which the abundance fitness was -0.157 ± 0.024.
For R8I, the abundance fitness came to 0.006 ± 0.046.
R8Y: the abundance fitness is -0.059 ± 0.055.
As to R8C, the abundance fitness was -0.12 ± 0.044.
On to R8V, for which the abundance fitness is -0.038 ± 0.029.
In the case of R8Q, the abundance fitness is 0.018 ± 0.043.
Take R8W: the abundance fitness is -0.043 ± 0.033.
For the variant R8L, the abundance fitness was -0.011 ± 0.028.
The same measure, in the same setting: for R8G the value was -0.052 ± 0.027.
On the same count and under the same terms, for R8E the value was 0.034 ± 0.038; for R8P, -0.116 ± 0.048; for R8M, -0.014 ± 0.042.
On the same count and under the same terms, the result for R8N reads -0.09 ± 0.062; that for R8A, -0.009 ± 0.032; that for R8D, 0.029 ± 0.042.
For R8H, the abundance fitness is -0.058 ± 0.052.

The record behind these values is the Human Domainome abundance scans (Beltran et al. 2025).
